Reference: US5851983
Like-named read-outs stand apart in the source and are kept apart here.

Tests used:
[1] = biological target: Human plasma thrombin (human) (UniProt P00734)
[2] = biological target: Human plasma kallikrein (human) (UniProt P03952)
[3] = biological target: Calf pancreatic trypsin (Sigma) (calf (bovine)) (UniProt P00760)
[4] = biological target: Human plasma plasmin (human) (UniProt P00747)
[5] = biological target: Porcine pancreatic elastase (Sigma) (porcine) (UniProt P00772)
[6] = biological target: Calf pancreatic chymotrypsin (Sigma) (calf (bovine)) (UniProt P00766)
[7] = biological target: Polymorphonuclear leukocyte elastase from human sputum (EPC Co.; Funakoshi Yakuhin) (human) (UniProt P08246)
[8] = biological target: Bovine spleen trypsin (Sigma) (bovine) (UniProt P00760)
[9] = biological target: Polymorphonuclear leukocyte elastase from human sputum (EPC Co.; Funakoshi Yakuhin) (human) (UniProt P08246); remark: listed apart in the source
[10] = biological target: Bovine spleen trypsin (Sigma) (bovine) (UniProt P00760); remark: listed apart in the source
[11] = biological target: Polymorphonuclear leukocyte elastase from human sputum (EPC Co.; Funakoshi Yakuhin) (human) (UniProt P08246); remark: listed apart in the source
[12] = biological target: Polymorphonuclear leukocyte elastase from human sputum (EPC Co.; Funakoshi Yakuhin) (human) (UniProt P08246); remark: listed apart in the source
[13] = biological target: Bovine spleen trypsin (Sigma) (bovine) (UniProt P00760); remark: listed apart in the source

Sequence of α1 -AT (Sigma) (P01009 25-418 limits assumed): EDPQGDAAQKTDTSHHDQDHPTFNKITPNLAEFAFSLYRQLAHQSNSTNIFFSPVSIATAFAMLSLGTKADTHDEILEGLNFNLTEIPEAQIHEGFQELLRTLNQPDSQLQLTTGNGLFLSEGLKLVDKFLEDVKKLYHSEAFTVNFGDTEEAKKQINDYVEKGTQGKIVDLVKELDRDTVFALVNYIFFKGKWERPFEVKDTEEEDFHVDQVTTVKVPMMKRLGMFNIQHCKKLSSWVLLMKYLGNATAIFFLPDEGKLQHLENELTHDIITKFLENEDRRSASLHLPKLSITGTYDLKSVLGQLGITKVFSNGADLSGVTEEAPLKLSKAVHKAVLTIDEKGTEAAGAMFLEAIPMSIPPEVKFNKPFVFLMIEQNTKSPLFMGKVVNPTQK
Sequence of (Arg^59 -Ala^107) SLPI (chain): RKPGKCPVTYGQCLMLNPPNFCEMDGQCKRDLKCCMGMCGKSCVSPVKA
Sequence of Bovine spleen trypsin (Sigma) (bovine) (P00760 24-246): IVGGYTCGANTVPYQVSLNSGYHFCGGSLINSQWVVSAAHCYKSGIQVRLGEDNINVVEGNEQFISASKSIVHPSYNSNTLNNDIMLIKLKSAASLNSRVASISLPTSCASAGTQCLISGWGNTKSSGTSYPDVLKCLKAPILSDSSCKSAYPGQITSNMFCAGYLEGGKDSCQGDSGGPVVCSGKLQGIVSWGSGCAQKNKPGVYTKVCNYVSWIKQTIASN
Sequence of Human secretory leukoprotease inhibitor (SLPI) (chain): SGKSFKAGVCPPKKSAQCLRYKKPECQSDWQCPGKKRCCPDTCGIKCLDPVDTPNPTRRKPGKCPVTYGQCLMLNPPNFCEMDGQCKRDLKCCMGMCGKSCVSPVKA
Sequence of (Arg^58 -Ala^107) SLPI (chain): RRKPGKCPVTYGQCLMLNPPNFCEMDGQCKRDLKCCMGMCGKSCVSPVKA
Sequence of (Asn^55 -Ala^107) SLPI fragment polypeptide (chain): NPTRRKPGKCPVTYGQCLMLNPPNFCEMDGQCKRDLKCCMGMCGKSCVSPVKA
Sequence of Calf pancreatic trypsin (Sigma) (calf (bovine)) (P00760 24-246): as the sequence (P00760 24-246) above
Sequence of Porcine pancreatic elastase (Sigma) (porcine) (P00772 27-266): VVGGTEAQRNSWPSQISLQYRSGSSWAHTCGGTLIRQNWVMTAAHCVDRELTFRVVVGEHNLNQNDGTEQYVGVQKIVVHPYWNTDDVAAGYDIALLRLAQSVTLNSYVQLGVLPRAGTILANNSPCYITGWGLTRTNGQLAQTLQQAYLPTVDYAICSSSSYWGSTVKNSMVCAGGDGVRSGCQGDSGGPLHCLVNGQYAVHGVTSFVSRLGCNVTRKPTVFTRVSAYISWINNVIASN
Sequence of Human plasma plasmin (human) (P00747 97-810 limits assumed): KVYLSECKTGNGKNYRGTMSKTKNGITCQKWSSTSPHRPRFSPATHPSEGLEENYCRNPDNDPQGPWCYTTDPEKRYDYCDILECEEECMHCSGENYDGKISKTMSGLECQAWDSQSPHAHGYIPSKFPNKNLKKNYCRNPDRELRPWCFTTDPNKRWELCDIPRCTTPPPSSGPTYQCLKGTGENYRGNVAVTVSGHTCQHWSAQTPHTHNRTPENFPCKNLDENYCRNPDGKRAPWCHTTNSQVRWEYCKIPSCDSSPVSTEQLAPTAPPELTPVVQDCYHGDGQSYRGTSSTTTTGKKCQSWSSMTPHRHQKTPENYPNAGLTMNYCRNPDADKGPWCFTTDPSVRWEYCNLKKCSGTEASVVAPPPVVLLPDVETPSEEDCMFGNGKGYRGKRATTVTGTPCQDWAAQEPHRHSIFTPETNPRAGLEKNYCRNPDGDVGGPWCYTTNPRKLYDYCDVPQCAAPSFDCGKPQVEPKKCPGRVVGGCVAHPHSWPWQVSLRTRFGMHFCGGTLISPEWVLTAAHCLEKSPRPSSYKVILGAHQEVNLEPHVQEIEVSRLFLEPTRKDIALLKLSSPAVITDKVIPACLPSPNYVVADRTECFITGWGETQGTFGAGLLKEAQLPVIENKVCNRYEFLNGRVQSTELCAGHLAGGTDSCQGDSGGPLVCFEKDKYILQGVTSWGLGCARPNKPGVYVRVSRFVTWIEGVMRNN

Substance	concentration of inhibitory protein which exhibits a 50% inhibition [3] [nM]	IC50 [7] [µM]	IC50 [8] [µM]	IC50 Value [9] [µM]	IC50 Value [10] [µM]	also measured
α1 -AT (Sigma) (from UniProt P01009)	200	–	–	–	–	concentration of inhibitory protein which exhibits a 50% inhibition [1]: > 2 µM; concentration of inhibitory protein which exhibits a 50% inhibition [2]: > 2 µM; concentration of inhibitory protein which exhibits a 50% inhibition [4]: > 2 µM; concentration of inhibitory protein which exhibits a 50% inhibition [5]: 300 nM; concentration of inhibitory protein which exhibits a 50% inhibition [6]: 2 µM
(Arg^59 -Ala^107) SLPI	–	0.012	2	0.014	2.5	–
(Asn^55 -Ala^107) SLPI fragment polypeptide	130	–	–	–	–	concentration of inhibitory protein which exhibits a 50% inhibition [11]: 1 nM
(Arg^58 -Ala^107) SLPI	–	–	–	–	–	IC50 [12]: 0.012 µM; IC50 [13]: 2 µM
Human secretory leukoprotease inhibitor (SLPI)	–	0.013	0.33	0.016	0.24	–
